Patent US20150203579A1 (Regeneron, published 2015)
Like-named read-outs stand apart in the source and are kept apart here. Each block holds one binder with its values, some of them ahead of it.

Legend:
[1] = molecular target: PD-1 chimera: extracellular domain of human PD-1 with trans-membrane and cytoplasmic domains of human CD300a, … (human, UniProt Q9UGN4 181-299, limits assumed); assay: cell-based or functional assay
[2] = molecular target: T1, recombinant human PD-1 expressed with a C-terminal myc-myc-hexahistidine tag (human); assay: SPR (Biacore), mAb captured, hPD-1-MMH injected, 25 C;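 note: rate constants obtained by fitting sensorgrams to a 1:1 binding model, KD derived as kd/ka and half-life as ln2/(60·kd) in minutes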
T1 construct: also called hPD-1-MMH; human PD-1-MMH

[3] = molecular target: T2, PD-1 chimera: extracellular domain of human PD-1 with trans-membrane and cytoplasmic domains of human CD300a, … (human, UniProt Q9UGN4 181-299, limits assumed); assay: cell-based or functional assay; remark: listed apart in the source
[4] = molecular target: T3, recombinant human PD-1 dimer expressed with a C-terminal mouse IgG2a Fc tag (human); assay: BLI Octet: 100 nM hPD-1-mFc + 500 nM mAb to captured hPD-L1-hFc
T3 construct: also called hPD-1-mFc

[5] = molecular target: T4, full length human PD-1 on HEK293/hPD-1 cells (human, UniProt Q15116 25-288); assay: FACS, 100 nM mAb
[6] = molecular target: T4, full length human PD-1 on HEK293/hPD-1 …; assay: FACS, 100 nM mAb, HEK293/hPD-1 cells;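 note: antibodies incubated with cells for 15-30 min on ice, bound antibody detected through a secondary F(ab′)2 by flow cytometry, with parental HEK293 cells tested in parallel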
[7] = molecular target: T4, full length human PD-1 on HEK293/hPD-1 …; assay: FACS dose response, HEK293/hPD-1 cells; No EC50 determined
[8] = molecular target: T5, dimeric biotinylated human PD-1 protein with a C-terminal human Fc tag (human, biotinylated (sites not given)); assay: competition ELISA: 200 pM biot-hPD-1-hFc to coated hPD-L1-mFc
T5 construct: also called biot-hPD-1-hFc

[9] = molecular target: T4, full length human PD-1 on HEK293/hPD-1 …; assay: FACS dose response, HEK293/hPD-1 cells
[10] = molecular target: T3, recombinant human PD-1 dimer expressed …; assay: competition ELISA: 1.5 nM hPD-1-mFc to coated hPD-L1-hFc; * below theoretical bottom 7.5E-10 M
[11] = molecular target: T3, recombinant human PD-1 dimer expressed …; assay: competition ELISA: 100 pM hPD-1-mFc to coated hPD-L2-hFc
[12] = molecular target: T5, dimeric biotinylated human PD-1 protein …; assay: competition ELISA: 200 pM biot-hPD-1-hFc to coated hPD-L1-mFc; * below theoretical bottom 1.0E-10 M
[13] = molecular target: T3, recombinant human PD-1 dimer expressed …; assay: competition ELISA: 1.5 nM hPD-1-mFc to coated hPD-L1-hFc
[14] = molecular target: T6, monkey PD-1 with mFc (monkey); assay: SPR, captured mAb, 37 C;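 note: Real-time Biacore surface plasmon resonance biosensor readout of PD-1 reagent binding to purified anti-PD-1 monoclonal antibodies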
T6 construct: also called monkey PD-1-mFc; monkey PD-1 dimer
T6 chain: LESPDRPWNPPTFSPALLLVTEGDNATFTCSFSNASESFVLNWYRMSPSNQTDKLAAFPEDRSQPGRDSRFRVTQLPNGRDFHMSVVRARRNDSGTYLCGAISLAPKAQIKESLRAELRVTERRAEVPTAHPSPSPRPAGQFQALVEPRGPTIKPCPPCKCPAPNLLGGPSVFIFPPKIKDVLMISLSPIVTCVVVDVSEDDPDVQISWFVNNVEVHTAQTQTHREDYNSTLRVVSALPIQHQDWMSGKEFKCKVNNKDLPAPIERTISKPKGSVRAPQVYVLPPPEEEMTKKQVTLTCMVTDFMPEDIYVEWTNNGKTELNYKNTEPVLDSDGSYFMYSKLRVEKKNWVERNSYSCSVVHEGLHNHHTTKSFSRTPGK

[15] = molecular target: T7, recombinant human PD-L1 expressed with a C-terminal mouse IgG2a Fc tag (human); assay: SPR Biacore 3000: 500 nM mAb alone (no hPD-1.hFc) over captured hPD-L1.mFc surface, control
T7 construct: also called hPD-L1-mFc; hPD-L1.mFc

[16] = molecular target: T6, monkey PD-1 with mFc; assay: SPR, captured mAb, 25 C;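 note: purified anti-PD-1 antibodies tested on Biacore 4000 or T200 instruments, rate constants obtained via 1:1 binding model fit, with KD as kd/ka and half-life as ln2/(60·kd)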
[17] = molecular target: T4, full length human PD-1 on HEK293/hPD-1 …; assay: FACS dose response, HEK293/hPD-1 cells; remark: listed apart in the source
[18] = molecular target: T2, PD-1 chimera: extracellular domain of …; assay: cell-based or functional assay; remark: listed apart in the source
[19] = molecular target: T8, recombinant human PD-1 expressed with a C-terminal human IgG1 Fc tag (human); assay: SPR Biacore 3000: 100 nM hPD-1.hFc + 500 nM mAb to captured hPD-L1.mFc;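 note: inhibition study with anti-PD-1 mAbs, SPR responses tracked in real time and read at the close of each step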
T8 construct: also called hPD-1-hFc; hPD1-hFc

[20] = molecular target: T9, human PD-1 dimer (human PD-1-mFc or human PD-1-hFc) (human, UniProt Q15116 25-170); assay: SPR, mAb captured, 25C;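 note: surface plasmon resonance on Biacore, PD-1 flowed over captured anti-PD-1 antibodies, rate constants from a 1:1 binding model fit, KD taken as kd/ka and t½ as ln2/(60·kd)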
T9 construct: also called hPD-1-mFc; hPD1-hFc

[21] = molecular target: T10, recombinant cynomolgus monkey PD-1 expressed with a C-terminal myc-myc-hexahistidine tag (cynomolgus monkey (Macaca fascicularis)); assay: SPR, mAb captured, 25C; 25 C
T10 construct: monomeric; also called MfPD-1-MMH
T10 chain: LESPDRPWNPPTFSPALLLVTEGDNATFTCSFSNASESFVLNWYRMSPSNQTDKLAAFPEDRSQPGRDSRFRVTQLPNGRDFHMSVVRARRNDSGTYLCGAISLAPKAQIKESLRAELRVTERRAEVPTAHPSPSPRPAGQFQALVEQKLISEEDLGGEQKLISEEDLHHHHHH

[22] = molecular target: T9, human PD-1 dimer (human PD-1-mFc or …); assay: SPR, mAb captured, 37C;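 note: Real-time Biacore biosensor, PD-1 dimer flowed over anti-PD-1 antibody surface, rate constants fitted to a 1:1 model, KD derived as kd/ka and t½ as ln2/(60·kd)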

- Emax, AP1-Luc signal at 100 nM antibody (% of signal without anti-PD-1 antibody) [1]: 163%
- Kd [2]: 15.6 nM
- koff [2]: 0.00122 s⁻¹
- kon [2]: 78400 M⁻¹ s⁻¹
- t½ [2]: 9.5 min
B1: H4xH9119P2 (antibody, human IgG4, V domains shown)
VH: EVQLVESGGGLVQPGRSLRLSCAASGFTFEDYAMHWVRQAPGKGLEWVSGIGWSNVKIGYADSVKGRFTISRDNVRNSLYLQMNSLRTEDTAFYYCVKAYTSMLTLYFDYWGQGTLVTVSS
VL: not shown
notes: H4xH: modified human IgG4 Fc

- Emax mean [%] @ 100 nM [3]: 102%
- 100 nM Monkey PD-1-mFc Bound (RU) [14]: 6 RU
- Kd [14]: 86.3 nM
- koff [14]: 0.0105 s⁻¹
- kon [14]: 121000 M⁻¹ s⁻¹
- t1/2 [14]: 1.1 min
- 500 nM of anti-PD-1 monoclonal antibody (RU) [15]: -2 RU
- 100 nM Monkey PD-1-mFc Bound (RU) [16]: 17 RU
- Kd [16]: 54.2 nM
- koff [16]: 0.00309 s⁻¹
- kon [16]: 57000 M⁻¹ s⁻¹
- t1/2 [16]: 4 min
- ratio of MFI HEK293/hPD-1 to HEK293 parental cells [5]: 6.8
- MFI [6]: 1940 MFI
- Max Geom. Mean MFI @ 100 nM [7]: 639 MFI
B5: H4H9068P2 (antibody, V domains shown)
VH: EVQLVESGGGLVQRGGSLRLSCAASGFSFSSYAMNWVRQAPGKGLEWVSTISDSGGSTYYADSVKGRFTISRDNSKNTLSLQMNSLRAEDTAVYYCAKDQGGSYPYYFHYWGQGTLVTVSS
VL: not shown
notes: fully human; H4H prefix (human IgG4 Fc)

- Kd [20]: 1.75 nM
- koff [20]: 0.000177 s⁻¹
- kon [20]: 101000 M⁻¹ s⁻¹
- t½ [20]: 65 min
- Kd [21]: 551 nM
- koff [21]: 0.0191 s⁻¹
- kon [21]: 34600 M⁻¹ s⁻¹
- t½ [21]: 0.6 min
- Kd [22]: 9.07 nM
- koff [22]: 0.00211 s⁻¹
- kon [22]: 233000 M⁻¹ s⁻¹
- t½ [22]: 5 min
B9: H4H9057P2 (antibody, human IgG4, V domains shown)
VH: EVQLVESGGGLVQSGRSLRLSCAASGFTFDDYAMHWVRQPPGKGLEWVSGINWNRGRTGYADSVKGRFTISRDNAKNSLYLQMNDLRVEDTALYYCAKAEQWLDEGYFDYWGQGTLVTVSS
VL: not shown
notes: Fully human; H4H prefix (human IgG4 Fc)

Continued, binder first:

B2: H2aM7791N (antibody, V domains shown)
VH: QMQLQQWGAGLLKPSETLSLTCVVYGGSLNGYYWSWIRQSPGKGLEWIGEIDHSGSTNYNPSLKNRVTMSVDTSKIQFSLKLTSVTVADTAVYYCAREGLLPFDYWGQGTLVTVSS
VL: EIVLTQSPGTLSLSPGERVTLSCRASQSVYSNYLAWYQQNPGQAPRLLIYAASNRATGIPDRFSGSGSGTDFTLTISRLEPEDFAVYYCHQYATSPWTFGQGTKVEIK
notes: human variable regions, mouse IgG2a Fc; also called H2M7791N
- Emax mean [%] @ 100 nM [3]: 103%
- % Blocking [4]: -229%
- binding of the mixture (nm) [4]: 0.23 nm
- ratio of MFI HEK293/hPD-1 to HEK293 parental cells [5]: 18
- MFI [6]: 4950 MFI
- Max Geom. Mean MFI @ 100 nM [7]: 1400 MFI

B3: H2aM7795N (antibody, V domains shown)
VH: EVQVVESGGGLVEPGRSLRLSCKASGFTFDDYAMHWVRQTPGKALEWVSGINWSGNNIGYADSVKGRFTISKDDAKNSLYLQMNSLRPEDTALYYCTKDISITGTLDAFDVWGQGTMVTVSS
VL: DIQMTQSPISVSASVGDRVTITCRASQGISNWLAWYQQKPGIAPKLLIYSASSLQSGVPSRFRGSGSGTDFTLTIGSLQPEDFATYYCQQAHSFPLTFGGGTKVEIK
notes: human variable regions, mouse IgG2a Fc; also called H2M7795N
- Emax mean [%] @ 100 nM [3]: 109%
- % Blocking [4]: 114%
- binding of the mixture (nm) [4]: -0.01 nm
- ratio of MFI HEK293/hPD-1 to HEK293 parental cells [5]: 2.8
- MFI [6]: 817 MFI
- Max Geom. Mean MFI @ 100 nM [7]: 624 MFI

B4: H2aM7798N (antibody, V domains shown)
VH: EVQLLESGGVLVQPGGSLRLSCAASGFTFSNFGMTWVRQAPGKGLEWVSGISGGGRDTYFADSVKGRFTISRDNSKNTLYLQMNSLKGEDTAVYYCVKWGNIYFDYWGQGTLVTVSS
VL: DIQMTQSPSSLSASVGDSITITCRASLSINTFLNWYQQKPGKAPNLLIYAASSLHGGVPSRFSGSGSGTDFTLTIRTLQPEDFATYYCQQSSNTPFTFGPGTVVDFR
notes: human variable regions, mouse IgG2a Fc; also called H2M7798N
- Concentration (M) of Antibody at 150% activation [3]: 7.99e-10 M
- Emax mean [%] @ 100 nM [3]: 239%
- % blocking at 50 nM antibody [8]: 100%
- % Blocking [4]: 86%
- binding of the mixture (nm) [4]: 0.01 nm
- EC50 [9]: 0.0698 nM
- Max Geom. Mean MFI @ 100 nM [9]: 20900 MFI
- IC50 [10]: 0.68 nM
- % blocking at 100 nM antibody [11]: 100%
- IC50 [11]: 0.13 nM
- IC50 [12]: 0.073 nM
- % blocking at 200 nM antibody [13]: 93%
- ratio of MFI HEK293/hPD-1 to HEK293 parental cells [5]: 78.1
- MFI [6]: 23400 MFI

B6: H4H7798N (antibody, human IgG4 S228P, kappa, V domains shown)
VH: EVQLLESGGVLVQPGGSLRLSCAASGFTFSNFGMTWVRQAPGKGLEWVSGISGGGRDTYFADSVKGRFTISRDNSKNTLYLQMNSLKGEDTAVYYCVKWGNIYFDYWGQGTLVTVSS
VL: DIQMTQSPSSLSASVGDSITITCRASLSINTFLNWYQQKPGKAPNLLIYAASSLHGGVPSRFSGSGSGTDFTLTIRTLQPEDFATYYCQQSSNTPFTFGPGTVVDFRR
notes: human IgG4 Fc
- Concentration (M) of Antibody at 150% activation [3]: 1.54e-09 M
- Emax mean [%] @ 100 nM [3]: 202%
- EC50 [17]: 0.509 nM
- Max Geom. Mean MFI @ 100 nM [17]: 20300 MFI
- 100 nM Monkey PD-1-mFc Bound (RU) [14]: 88 RU
- Kd [14]: 0.202 nM
- koff [14]: 0.000127 s⁻¹
- kon [14]: 630000 M⁻¹ s⁻¹
- t1/2 [14]: 91 min
- Emax mean [%] @ 100 nM [18]: 343%
- 500 nM of anti-PD-1 monoclonal antibody (RU) [15]: -6 RU
- 100 nM Monkey PD-1-mFc Bound (RU) [16]: 93 RU
- Kd [16]: 0.137 nM
- koff [16]: 6.14e-05 s⁻¹
- kon [16]: 449000 M⁻¹ s⁻¹
- t1/2 [16]: 188 min
- % Blocking [19]: 106%
- binding of the mixture (RU) [19]: -6 RU

B7: H4H9048P2 (antibody, human IgG4 S228P, kappa, V domains shown)
VH: QVQLVQSGAEVKRPGSSVKVSCKVSGVTFRNFAIIWVRQAPGQGLEWMGGIIPFFSAANYAQSFQGRVTITPDESTSTAFMELASLRSEDTAVYYCAREGERGHTYGFDYWGQGTLVTVSS
VL: not shown
notes: human IgG4 Fc
- EC50 [17]: 1.6 nM
- Max Geom. Mean MFI @ 100 nM [17]: 39800 MFI
- Emax mean [%] @ 100 nM [18]: 134%

B8: H4H9008P (antibody, human IgG4 S228P, kappa, V domains shown)
VH: EVQLVESGGGLVRPGGSLRLSCAASGFTFSTYAMAWVRQTPGKGLEGVSAIGGSGDSTYYVDSVKGRFTISRDNSKSTLFLQMNSLRAEDTAVYYCVKVRNYDGSFDIWGQGTMVTVSS
VL: not shown
- Emax, AP1-Luc signal at 100 nM antibody (% of signal without anti-PD-1 antibody) [1]: 150%
